Assay: yeast display, Sf9 membrane polyspecificity reagent, FACS + sequencing; frameworks hold sequencing errors
Procedure, shortened: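 Galactose induction of a Saccharomyces cerevisiae BJ5465 synthetic nanobody display library ran 36–48 hours. The cells were then stained for 1 hour at 4 °C with 10% biotinylated, detergent-solubilized Sf9 membrane reagent, pulled down on streptavidin microbeads and FACS-sorted into low and high (top ~1%) gates on expression and reagent-binding fluorescence. Labels for polyreactivity follow the gate of origin.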
In the case of “QVQLVDTGGGLGQAGGSLRLSCAASGSTFFPYAMGWYRQAPGKEREFVAGISSDGGTSYADSVKGRFTISRDNAKNTVYLQMNSLKPEDTAVYYCAALQADRDRYPEFDLMDYWGQGTQVSVSS”, the “polyreactivity (PSR sort gate)” value was “low polyreactivity”. With “QVQLVESGGGLVQAGGSLRISCAASGSIFNIYAMGWSRQAPGKERELVATITGIADSTYYADSVKGRFTISRDNAKNTVNFQMNSLKPEDTAVYYCAARRTRVTGRYSVYAFDYWGQGTQVTVSS” the “polyreactivity (PSR sort gate)” value was “low polyreactivity”. With “QVQLVESGGGLVQAGGSLRLSCAASGSIFYRNAMGWSRQAPGKEREFVAAITLRGGSTYYADSVKGRFTISRDYAKNTVYLQMNSLKPEDTAVYYCNAGVGLTYVHDGDYWGQGTQVTVSS” the “polyreactivity (PSR sort gate)” value was “low polyreactivity”. For “QVKLVESGGGLVQAGGSLRLSCAAYGSTFAYNAMGWYRQAPGKERELVADISWSGGSTYYADSVKGRFTISRDNAKNTVYLQMNSLNPEDTAVYYCATEYSEGITQFFWATDYDYWGQGSQVTVSS”, the “polyreactivity (PSR sort gate)” value was “high polyreactivity”. In the case of “QVQLVESGGGLVQAGGSLRLSCAASGSTFDRNAMGWYRKAPGKERELVAAISKRSGSTYYADSVKGRFTISRDNAKNTVYLQMNSLKPEDTAVYYCAADRISYRGMGSWGQGTQVTVSS”, the “polyreactivity (PSR sort gate)” value was “high polyreactivity”. With “QVQLVESGGGLFQAGGSLRVSCAASGFTFVYYAMGWYRQAPGKERELVAAITASGGSTYYADSVQGRFTISRDNAKNTVYLQMNSLKPEDSADYYCNTVRYVRHYRQSGYWGQGTQVTVSS” the “polyreactivity (PSR sort gate)” value was “high polyreactivity”. With “QVQLVESGGGLVQAGGSLRLSCAASGRISDFYAMGWNRQAPGKEREFVAAMSWSGGSTSYADSVKGRFTISRDNAKNTVYLQMNSLKPEDTSVYYCSAKGSRGNSAWYGYWGQGTQVTVSS” the “polyreactivity (PSR sort gate)” value was “high polyreactivity”. With “QVQLVESGGGLVQAGGSLRLSCAASGRTFRRYAMGWYRQAPGKERELVAAITRGGSTNYADSVKGRFTISRDNAKDTVYLQMNSLKPEDTAVYYCAKDPLATFYGYWGQGTQVTVSS” the “polyreactivity (PSR sort gate)” value was “high polyreactivity”. With “QVQLVESGGGLVQAGGSLRLSCAASGIIFSTYAMGWYRQAPGKDRELVAAITSTGSTNYADSEKGRFTISRDNAKTTVSLQMNSLKPEDTAVYFCAARYAGPSPTDTGHDYWGQGTQVTVSS” the “polyreactivity (PSR sort gate)” value was “low polyreactivity”. In the case of “QDQLVESGGGLVQAGGSLRLSCAASGRIFRLNAMGWSRQAPWKERELVAAITRGGNTYYADSVKGRFTISRDNAKNTVYLQMNSLKPEDTAVYYCAATSSRVSGYRYDYWGQGTQVTVSS”, the “polyreactivity (PSR sort gate)” value was “high polyreactivity”. For “QVQLQESGGGLVQAGGSLRLSCAASGYISFSGYMGRYRQAPGKEREFVDSITPGRSTYYADSVKGRFTISRDNAENTVYLQMNSLKPEDTAVYYCAADDSRTEQHAYWGQGTQVTVSS”, the “polyreactivity (PSR sort gate)” value was “high polyreactivity”. For “QVQLHESGGGLVQAGGSLRLSCAASGTISYAGPRGWYRQAPGKERECVAGIGVGSNTNYADSVKGRYTIIRDNAKNTVYLQMNILKPEVTAVYYCAVGGYAPLGRPYWGQGTQVTVSS”, the “polyreactivity (PSR sort gate)” value was “low polyreactivity”. In the case of “QVQLVESGGGLVQAGGSLRLNCAASGRTLVLYVMGWYRQAPGKERELVAAISRSGGRTYYADSVKGRFTISRDNAKNTVYLQMNSLKPEDTAVYYCAAYTSYASDYWGQGTLVTVSS”, the “polyreactivity (PSR sort gate)” value was “high polyreactivity”. For “QVQLVESGGGLVQAGGSLRLSCAASGSTFRRYAMGWYRQAPGKERELVATITKRGGSTYYADSVKGRFTISRDNAKNTVYLQMNSLKPEDTAVYYCAADSAYWTYEYWGQGTQVTVSS”, the “polyreactivity (PSR sort gate)” value was “high polyreactivity”. For “QVQLVESGGGLVQAGGSLRLSCAASGIIFDYYAMGWYRQAPGKERELVASNSWSGGGTYYADSVKGRFTISRDNAKNTVYFQMNRLNPEDTAVYYCAADGSTVNAPRWSDPYDYWGQGTQVTVSS”, the “polyreactivity (PSR sort gate)” value was “low polyreactivity”. In the case of “QVQLVESGGGLVQAGGSLRLSCAASGFTLGWYAKGWYRQAPGKERELVASINWDGGSTYYADSVKVRFTISRDNAKNTVYLPMNSLKAEDTAVDYWAAPPGGGGGIGYDSWGQGTQVTVSS”, the “polyreactivity (PSR sort gate)” value was “high polyreactivity”. With “QVQLVESGGGLVQAGGSLRLSCAASGGIFSLYAMGWYRQAPGKEREFVAAISFTGASTYYADSVKGRFTISRDNAKNTVYLQMNSLKPEDTAVYYCAAYWDAEGRRYTRLDYWGQGTQVTLSS” the “polyreactivity (PSR sort gate)” value was “low polyreactivity”. For “QVQLVESGGGLVQAGGSLRLSCAASGFTFRGYAMGWYRQAPGKERELVASITYRGGSTYYADSVKGRFTISRDNAKNTVYLQMNSLKPEDTAVSYCNAGFGGRRRQDAFIGTSIYDYWGQCTQVTVSS”, the “polyreactivity (PSR sort gate)” value was “low polyreactivity”. In the case of “QVQLVESGGGLVQAGGSLRLSCAASGRTFFENAKGWYRQAPGKEREFVAAISYNGGSTYYADSVKGRFTISRDNAKNTVYLQMNSLKPEDTAVYYCAADPNYGYDYWGQGTQVTVSS”, the “polyreactivity (PSR sort gate)” value was “low polyreactivity”. In the case of “QVQLVESGGGLVQAGGSLRLSCAASGFIFGYNAMGWYRQAPGKERELVAAISSGGSTYYADSVKGRFTISRDNAKNTVYLQMKSLKPEDTAVYYCAVELGYPIQSYALWWDFEYWGQGTQVTVSS”, the “polyreactivity (PSR sort gate)” value was “low polyreactivity”. In the case of “QVQLVESGGGLVQAGGSLRLSCAASGSTFTVNDMGWYRQAPGKERELVAAITQRDGRTFYADSVKGRFTISRDNAQNTVYLLMNSLKPEDTAVYYCAADYGWYTYGDYDYWGQGTQVTVSS”, the “polyreactivity (PSR sort gate)” value was “low polyreactivity”. With “QVQLLESGGGLVQAGGSLRLSCAASGRTFDWNMGWYRQAPGKERELVAGITFSVDSTYYADSVKGRFTISRDNAKNTVYLQMNSLKPEDTAYWGQGTQVSVSS” the “polyreactivity (PSR sort gate)” value was “low polyreactivity”. With “QVQRVESGGGLVQAGGRLRLSCAASASTLYSYAMGWNRQAPGKEREFVATISQIGVRTYYADSVKGRFTISRDNAKNTVYLQMNSLKPEDTAVYYCAAGYRFTTYLVYNYWGQGTQVTVSS” the “polyreactivity (PSR sort gate)” value was “high polyreactivity”. With “QVKLVESGGRLVQAGGSLRLSCAASGIIFFSYAMRSYRQAPGKERELVAAISGTGGNTYYADSVKGRFTISRDNAKNTVYFQMNSLKPEDTAVYYCAADQEWYYYFVSFAYYILDYWGQGTEVTVSS” the “polyreactivity (PSR sort gate)” value was “high polyreactivity”. With “QVQLVESGGGLVQAGGSLRLSCAASGRTFPPYAMGWYRQAPRKESELVAAISGSGASTYYADSVKGRFTISRDNAKNTVYLQMNSLKPEDTAVYYCAARRGSGKFGKYRGVDYWGQGTQVTVSS” the “polyreactivity (PSR sort gate)” value was “high polyreactivity”. With “QVQLVESGGGLVQAGGSLRLSCAASGSTFAGYALGWYRQAPGKERELVADITWSGGSTYYADSVKGRFTISRDNAKNTVYLQMNSLKPEDTAVYYCAAAGYYSDMDYWGQGTQVTVSS” the “polyreactivity (PSR sort gate)” value was “low polyreactivity”. For “QVQLEESGGGLVQAGGSLRLSCAASGRNLEVYAMGWNRKAPGKERELVAAIRWSDGNTYYADSVKGRFTISRDIAKNTVYLQMNSLKPEDTAVYYCAARTPGGYDWGQGTQVTVSS”, the “polyreactivity (PSR sort gate)” value was “high polyreactivity”. For “QVKLVESGGGLVQAGGSLSLSCDASGNTFVRNVMGSYRQEPGKERELLAAIRSGTRTYYADSVKGRFTISRDNAKNTVYLQINSLKPEDTAVYYCATYRTYNSYRYDYWGQGTQVTVSS”, the “polyreactivity (PSR sort gate)” value was “high polyreactivity”. In the case of “QVQLVESGGGLVQAGGSLRLSCAASGLILDYNDMGWYRQAPGKERELVASITGGGSTYYADSVKGRFTISRDNAKNTVYLQMNSLKPEDTAVYYCNADPVGVYGFDLDYWGQGTQVTVSS”, the “polyreactivity (PSR sort gate)” value was “low polyreactivity”. For “QVQLVESGGGLVQAGGSLRLSCAASGFTFDWYAMGWYTQAPGKERELVAAITTSGGTTYYADSVKGRFTISRDNSKNNVYLKMISLKPEDPAVYFCAADYYYWYPVEKYDYCGQGTQVTVSS”, the “polyreactivity (PSR sort gate)” value was “low polyreactivity”. In the case of “QVQLVESGGGLVQAGGSLRLSCAASGSIFALYTMGWYRQAPGKEREMVAAISRRGGNKYYADSVKGRFTISRDNAKNTVYLQMNRLKPEDTAVYYCNADRLRSTHDYWGQGTQVSVSS”, the “polyreactivity (PSR sort gate)” value was “high polyreactivity”. In the case of “QVQLVESGGGLVQAGGSLRLSCAASGLIFPGYAMGWYRQAPGKERELVAAIDWSGGSTYYADSVKGRFTISRDYAKNTVYLQMNSLKPEDTAVYDCNADGYLSYAFDYWGQGTQVTVSS”, the “polyreactivity (PSR sort gate)” value was “low polyreactivity”. With “QLQLVESGGGLVQAGGSLRLSCAASGRIFVKYAMGWYRQAPGKERELVAAISNGASTNYADSVKGRFTISRDNAKNTVYLQMNSLKPEDTAVYYCAASFSRYYRKRYDYWGQGTQVTVSS” the “polyreactivity (PSR sort gate)” value was “high polyreactivity”. In the case of “QVQLVESGGGLVQAGGSLRLSCAASGRIFQYYAMGWYRQAPGKERELVAAITSGGRTTYADSVKGRFTISRDNAKNTVYLQMNSLKPEVTAVYYCNAKTWYSYNYWGQGTQVTVSS”, the “polyreactivity (PSR sort gate)” value was “high polyreactivity”. For “QVQLVESGGGLVQAGGSLRISCAASGFTFRANAMGWYRQAPGKEREVVAAISQSGGRTYYADSVKARFTISRDNAKNTVYLQMNSLKPEDTAVYDCAAPDSAKELYYRMDYWGQGTQVTVSS”, the “polyreactivity (PSR sort gate)” value was “high polyreactivity”. In the case of “QVQLVESGGGLVQAGGSLRLSCAASGSTFGSYAMGWYRQAPGKERELVAAISRAGSTYADSVKGRFTISRDNAKNTVYLQMNSLKPEDTAVYYCAKRDNALYYGYDYWGQGTQVTVSS”, the “polyreactivity (PSR sort gate)” value was “low polyreactivity”. In the case of “QVQLVESGGGLVQAGGSLRLSCAASGSTFDNNAMGWYRQAPGKERELVAAISWGGGSTYYADSVKGRFTISRDNAKNTVYLQMNSLKPEDTAVYYCAKLKGTQPNRYDYWGQGTQVTVSS”, the “polyreactivity (PSR sort gate)” value was “low polyreactivity”. For “QVQLVESGGGLDQAGGSLRLSCAASGSTYSYYAMGWYRQAPGKERELVAAISRSGGSTYYADSVKGRFTISRDNAKNTVYLQMNCMKPEDTAVYYCAARGQYRYSFGDYSWGQGTQVTVSS”, the “polyreactivity (PSR sort gate)” value was “high polyreactivity”. In the case of “QVQLVESGGGLVQAGGSLRLSCAASGRTFSENAMGWYRQARGKERELVAAISGSGGRTYYADSVKGRFTISRDNAKNTVYLQMNSLKPEDTAVYYCAKVTRYGSTYDYWGQGTQVTVSS”, the “polyreactivity (PSR sort gate)” value was “high polyreactivity”. In the case of “QVQLVESGGGLVQAGGSLRLSCAASGLTFLKNAMGWYRQAPGKERELVAAISDGGSTNYADSVKGRFTISRDNAKNTVYLQMNSLKPEDTAVYYCAAVYTSASYGSWGQGTQVTVSS”, the “polyreactivity (PSR sort gate)” value was “low polyreactivity”. In the case of “QVQLVESRGGLVQAGGSIRLSCAASGRIFVTYAMGWYRQAPGKERELVAVISWSGGSTYYADSVKGRFTISRDNAKNTVYLQMNSLKPEDTAVYYCARGLRKVRFDFWGQGTQVTVSS”, the “polyreactivity (PSR sort gate)” value was “low polyreactivity”.
